From patent US20250090688A1 (BROAD INSTITUTE, published 2025)

What was measured:
Experiment in all cases: inhibition of transduction of human primary myotubes by virus pre-incubated with recombinant soluble integrin (affinity as inferred by the filing)
[1] = target: T1, recombinant soluble human integrin heterodimer αVβ6 (human, UniProt P06756 31-992; P18564 22-707)
T1 construct: Bought (R&D Systems); also called αVβ6 recombinant protein; αVb6

[2] = target: T2, recombinant soluble human integrin heterodimer αVβ1 (human, UniProt P06756 31-992; P05556 21-728)
T2 construct: Bought (R&D Systems); also called αVβ1 recombinant protein; αVb1

[3] = target: T3, recombinant soluble human integrin heterodimer αVβ3 (human, UniProt P06756 31-992; P05106 27-718)
T3 construct: Bought (R&D Systems); also called αVβ3 recombinant protein; αVb3

[4] = target: T4, recombinant soluble human integrin heterodimer αVβ8 (human, UniProt P06756 31-992; P26012 43-684)
T4 construct: Bought (R&D Systems); also called αVβ8 recombinant protein; αVb8

Measured: binding result

T2 sequence (P06756 31-992 limits assumed, chain 1 of 2): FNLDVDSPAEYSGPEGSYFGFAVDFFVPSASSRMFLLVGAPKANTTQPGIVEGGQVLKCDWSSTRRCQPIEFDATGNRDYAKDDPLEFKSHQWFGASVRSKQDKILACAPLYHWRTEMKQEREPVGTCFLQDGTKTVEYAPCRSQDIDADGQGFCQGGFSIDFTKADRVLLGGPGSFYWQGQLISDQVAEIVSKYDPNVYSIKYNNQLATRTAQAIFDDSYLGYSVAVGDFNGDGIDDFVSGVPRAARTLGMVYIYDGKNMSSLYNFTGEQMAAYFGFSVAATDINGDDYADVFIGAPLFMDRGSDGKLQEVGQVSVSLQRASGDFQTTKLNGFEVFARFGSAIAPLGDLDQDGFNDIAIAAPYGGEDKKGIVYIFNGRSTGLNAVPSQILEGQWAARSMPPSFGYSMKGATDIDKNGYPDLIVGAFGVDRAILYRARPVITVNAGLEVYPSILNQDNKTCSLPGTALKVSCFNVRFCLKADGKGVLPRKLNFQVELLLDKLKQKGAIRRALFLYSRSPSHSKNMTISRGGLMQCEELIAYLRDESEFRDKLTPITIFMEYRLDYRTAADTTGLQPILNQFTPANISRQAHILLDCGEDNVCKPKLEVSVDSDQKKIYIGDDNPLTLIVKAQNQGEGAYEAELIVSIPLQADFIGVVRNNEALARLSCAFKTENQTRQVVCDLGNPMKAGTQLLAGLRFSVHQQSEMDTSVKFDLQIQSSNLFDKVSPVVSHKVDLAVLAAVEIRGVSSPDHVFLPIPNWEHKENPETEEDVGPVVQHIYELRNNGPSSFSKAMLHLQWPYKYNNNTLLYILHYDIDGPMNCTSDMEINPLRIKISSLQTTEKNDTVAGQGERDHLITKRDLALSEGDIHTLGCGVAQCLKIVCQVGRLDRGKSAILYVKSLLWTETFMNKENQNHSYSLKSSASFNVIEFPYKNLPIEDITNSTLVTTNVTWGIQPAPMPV
T2 sequence (P05556 21-728 limits assumed, chain 2 of 2): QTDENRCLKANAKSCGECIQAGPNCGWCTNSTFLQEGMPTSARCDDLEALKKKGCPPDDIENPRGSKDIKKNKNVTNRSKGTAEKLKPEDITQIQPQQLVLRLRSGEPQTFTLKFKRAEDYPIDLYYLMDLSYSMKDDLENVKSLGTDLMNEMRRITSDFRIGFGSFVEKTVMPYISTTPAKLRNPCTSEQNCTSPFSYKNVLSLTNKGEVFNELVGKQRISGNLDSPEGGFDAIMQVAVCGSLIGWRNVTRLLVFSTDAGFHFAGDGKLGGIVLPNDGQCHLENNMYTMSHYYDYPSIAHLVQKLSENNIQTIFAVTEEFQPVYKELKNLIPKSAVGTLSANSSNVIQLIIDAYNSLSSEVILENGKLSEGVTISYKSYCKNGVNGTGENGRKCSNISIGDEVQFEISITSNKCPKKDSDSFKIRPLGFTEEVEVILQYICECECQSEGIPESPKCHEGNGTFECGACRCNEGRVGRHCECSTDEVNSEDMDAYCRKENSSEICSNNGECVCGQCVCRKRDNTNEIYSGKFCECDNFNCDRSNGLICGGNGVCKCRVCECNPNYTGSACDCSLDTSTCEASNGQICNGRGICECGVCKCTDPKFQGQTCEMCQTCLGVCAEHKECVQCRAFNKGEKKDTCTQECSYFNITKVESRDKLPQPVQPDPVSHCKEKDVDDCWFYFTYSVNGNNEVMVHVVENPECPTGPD
T1 sequence (P06756 31-992 limits assumed, chain 1 of 2): as the sequence (P06756 31-992 limits assumed, chain 1 of 2) above
T1 sequence (P18564 22-707 limits assumed, chain 2 of 2): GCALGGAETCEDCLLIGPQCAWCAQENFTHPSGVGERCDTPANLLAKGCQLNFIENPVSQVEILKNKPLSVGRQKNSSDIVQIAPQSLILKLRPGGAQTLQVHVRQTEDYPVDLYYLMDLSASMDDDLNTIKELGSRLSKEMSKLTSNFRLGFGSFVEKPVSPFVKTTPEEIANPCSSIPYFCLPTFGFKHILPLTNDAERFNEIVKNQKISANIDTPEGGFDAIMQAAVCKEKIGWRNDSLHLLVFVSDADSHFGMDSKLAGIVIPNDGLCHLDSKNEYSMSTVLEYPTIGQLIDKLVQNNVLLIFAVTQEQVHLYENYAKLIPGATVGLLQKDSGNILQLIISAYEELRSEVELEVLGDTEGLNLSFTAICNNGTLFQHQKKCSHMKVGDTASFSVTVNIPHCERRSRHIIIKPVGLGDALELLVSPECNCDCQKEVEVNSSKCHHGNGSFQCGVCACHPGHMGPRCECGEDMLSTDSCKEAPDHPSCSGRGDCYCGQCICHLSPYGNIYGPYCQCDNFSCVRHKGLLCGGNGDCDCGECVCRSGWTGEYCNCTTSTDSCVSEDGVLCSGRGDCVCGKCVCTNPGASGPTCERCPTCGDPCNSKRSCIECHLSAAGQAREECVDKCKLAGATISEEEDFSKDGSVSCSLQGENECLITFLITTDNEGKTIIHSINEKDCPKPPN
T4 sequence (P06756 31-992 limits assumed, chain 1 of 2): as the sequence (P06756 31-992 limits assumed, chain 1 of 2) above
T4 sequence (P26012 43-684 limits assumed, chain 2 of 2): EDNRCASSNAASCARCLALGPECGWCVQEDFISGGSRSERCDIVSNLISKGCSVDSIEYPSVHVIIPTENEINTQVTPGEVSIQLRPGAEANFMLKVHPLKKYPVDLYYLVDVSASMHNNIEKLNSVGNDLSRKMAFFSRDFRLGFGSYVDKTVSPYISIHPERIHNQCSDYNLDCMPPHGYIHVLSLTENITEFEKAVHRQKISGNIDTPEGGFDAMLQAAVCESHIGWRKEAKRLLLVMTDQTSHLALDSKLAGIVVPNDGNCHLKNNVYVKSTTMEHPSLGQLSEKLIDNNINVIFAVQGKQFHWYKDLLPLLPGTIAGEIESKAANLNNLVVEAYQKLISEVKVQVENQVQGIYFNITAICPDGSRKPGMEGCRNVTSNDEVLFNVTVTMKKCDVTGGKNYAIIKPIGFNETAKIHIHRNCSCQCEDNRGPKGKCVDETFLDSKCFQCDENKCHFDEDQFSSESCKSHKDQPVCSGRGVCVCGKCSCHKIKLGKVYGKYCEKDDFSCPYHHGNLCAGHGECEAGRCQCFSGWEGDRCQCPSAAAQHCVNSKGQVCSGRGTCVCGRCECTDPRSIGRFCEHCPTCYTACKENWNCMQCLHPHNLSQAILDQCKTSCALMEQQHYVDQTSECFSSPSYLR
T3 sequence (P06756 31-992 limits assumed, chain 1 of 2): as the sequence (P06756 31-992 limits assumed, chain 1 of 2) above
T3 sequence (P05106 27-718 limits assumed, chain 2 of 2): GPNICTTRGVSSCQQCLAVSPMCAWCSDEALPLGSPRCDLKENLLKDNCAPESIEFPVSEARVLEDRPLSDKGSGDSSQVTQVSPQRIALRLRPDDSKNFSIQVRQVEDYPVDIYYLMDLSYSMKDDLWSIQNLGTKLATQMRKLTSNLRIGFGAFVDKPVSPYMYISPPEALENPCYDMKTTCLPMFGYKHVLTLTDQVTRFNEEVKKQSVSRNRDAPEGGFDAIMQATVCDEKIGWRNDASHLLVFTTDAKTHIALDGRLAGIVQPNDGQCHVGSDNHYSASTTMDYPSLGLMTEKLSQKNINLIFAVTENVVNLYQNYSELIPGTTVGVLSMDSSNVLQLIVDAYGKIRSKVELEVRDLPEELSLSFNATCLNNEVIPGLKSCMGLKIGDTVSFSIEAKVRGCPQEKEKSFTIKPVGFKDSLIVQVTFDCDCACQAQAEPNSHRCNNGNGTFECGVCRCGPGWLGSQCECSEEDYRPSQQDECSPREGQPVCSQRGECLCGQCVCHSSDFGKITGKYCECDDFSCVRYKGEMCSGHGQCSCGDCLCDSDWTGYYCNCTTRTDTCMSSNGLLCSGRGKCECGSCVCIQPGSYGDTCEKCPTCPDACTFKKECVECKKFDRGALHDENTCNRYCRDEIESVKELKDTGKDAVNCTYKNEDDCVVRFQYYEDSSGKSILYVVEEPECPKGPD

B1: MyoAAV 2A (other)
chain: MAADGYLPDWLEDNLSEGIREWWALKPGAPQPKANQQHQDNARGLVLPGYKYLGPGNGLDKGEPVNAADAAALEHDKAYDQQLKAGDNPYLKYNHADAEFQERLKEDTSFGGNLGRAVFQAKKRLLEPLGLVEEAAKTAPGKKRPVEQSPQEPDSSAGIGKSGAQPAKKRLNFGQTGDTESVPDPQPIGEPPAAPSGVGSLTMASGGGAPVADNNEGADGVGSSSGNWHCDSQWLGDRVITTSTRTWALPTYNNHLYKQISNSTSGGSSNDNAYFGYSTPWGYFDFNRFHCHFSPRDWQRLINNNWGFRPKRLNFKLFNIQVKEVTDNNGVKTIANNLTSTVQVFTDSDYQLPYVLGSAHEGCLPPFPADVFMIPQYGYLTLNDGSQAVGRSSFYCLEYFPSQMLRTGNNFQFSYEFENVPFHSSYAHSQSLDRLMNPLIDQYLYYLSKTINGSGQNQQTLKFSVAGPSNMAVQGRNYIPGPSYRQQRVSTTVTQNNNSEFAWPGASSWALNGRNSLMNPGPAMASHKEGEDRFFPLSGSLIFGKQGTGRDNVDADKVMITNEEEIKTTNPVATESYGQVATNHQGPGRGDQTTLAQAQTGWVQNQGILPGMVWQDRDVYLQGPIWAKIPHTDGNFHPSPLMGGFGMKHPPPQILIKNTPVPADPPTAFNKDKLNSFITQYSTGQVSVEIEWELQKENSKRWNPEIQYTSNYYKSNNVEFAVNTEGVYSEPRPIGTRYLTRNL
notes: Recombinant AAV particle; also called EMyoAAV; enhanced MyoAAV
binds: [1] | [2] | [3] | [4]
